Source: PMC8319308

Molecular target: Gx-SB (protein G adapter domain fused to the small BiT fragment of split NanoLuc) (UniProt P06654)
Assay: other; 4C2-SB (SB1) conjugate with 19C7-LB; LB-SB affinity

“Gx-LB (protein G adapter domain fused to the large BiT fragment of split NanoLuc) (from UniProt P06654)” showed a Kd of 2500 nM.
